The source of these data is patent publication US20020177126A1.

Substrate in this experiment: F protein of wild type RSV A/Long (respiratory syncytial virus, strain A/Long) (UniProt P12568)
As to the kind of experiment: cell-based or functional assay.

Positions count from the first letter of the chain named.

Chain of F protein of wild type RSV A/Long (respiratory syncytial virus, strain A/Long) (P12568 26-574): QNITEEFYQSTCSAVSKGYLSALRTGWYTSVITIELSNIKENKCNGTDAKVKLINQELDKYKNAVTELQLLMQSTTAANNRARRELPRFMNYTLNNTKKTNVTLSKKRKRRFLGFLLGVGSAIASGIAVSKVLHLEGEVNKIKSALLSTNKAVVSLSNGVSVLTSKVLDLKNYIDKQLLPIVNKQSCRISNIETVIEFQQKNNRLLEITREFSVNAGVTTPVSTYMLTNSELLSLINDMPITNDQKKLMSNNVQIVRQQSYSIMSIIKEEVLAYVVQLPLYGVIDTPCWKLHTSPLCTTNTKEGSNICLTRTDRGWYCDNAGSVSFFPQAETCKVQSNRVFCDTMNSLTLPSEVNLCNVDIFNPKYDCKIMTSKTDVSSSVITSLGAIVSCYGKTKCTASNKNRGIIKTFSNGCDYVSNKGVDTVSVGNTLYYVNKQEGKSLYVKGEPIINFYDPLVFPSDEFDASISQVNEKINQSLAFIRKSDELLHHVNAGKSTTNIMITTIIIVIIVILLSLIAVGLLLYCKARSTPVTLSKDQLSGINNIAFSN

B1: A17d4 (Fab) (Fab, V domains shown)
VH: QVTLRESGPALVKPTQTLTLTCTFSGFSLSTAGMSVGWIRQPPGKALEWLADIWWDGKKSYNPSLKDRLTISKDTSKNQVVLKVTNMDPADTATYYCARDMIFNFYFDVWGQGTTVTVSS
VL: DIQMTQSPSTLSASVGDRVTITCLPSSRVGYMHWYQQKPGKAPKLLIYDTMYQASGVPSRFSGSGSGTEFTLTISSLQPDDFATYYCFQFSGYPFTFGGGTKLEIK
As to B1, the Fold Difference (Control IC50) amounted to 31 fold; the Fold Difference (Curve IC50) worked out at 25 fold; the Mean IC50 (Control), RSV microneutralization was determined as 0.0171 µg/mL; the Mean IC50 (Curve), RSV microneutralization turned out to be 0.0179 µg/mL.

B2: A8c7 (Fab) (Fab, V domains shown)
VH: B1 VH with G57D, F105W
VL: B1 VL with L24S, P25A, M51R, A54S, F90G
For the molecule B2, the Fold Difference (Control IC50) is 34 fold; the Fold Difference (Curve IC50) was 3 fold; the Mean IC50 (Control), RSV microneutralization was 0.157 µg/mL; the Mean IC50 (Curve), RSV microneutralization was 0.177 µg/mL.

B3: A4B4 (Fab) (Fab, V domains shown)
VH: B1 VH with G57D, S60H
VL: B1 VL with L24S, P25A, M51F, Y52F, Q53L, A54D, F90G
As to B3, the Fold Difference (Control IC50) worked out at 13 fold; the Fold Difference (Curve IC50) worked out at 11 fold; the Mean IC50 (Control), RSV microneutralization came out at 0.0411 µg/mL; the Mean IC50 (Curve), RSV microneutralization stood at 0.0414 µg/mL.

B4: A1h5 (Fab) (Fab, V domains shown)
VH: B1 VH with A32P, S60H, F105W
VL: B1 VL with L24S, P25L, R28S, M51F, Y52F, Q53H, A54R, F90G
Turning to B4, the Fold Difference (Control IC50) was found to be 3 fold; the Fold Difference (Curve IC50) stood at 2 fold; the Mean IC50 (Control), RSV microneutralization stood at 0.176 µg/mL; the Mean IC50 (Curve), RSV microneutralization was found to be 0.194 µg/mL.
